Publication doi:10.1101/2023.03.02.528060

Key:
[1] = molecular target: Rous sarcoma virus integrase (1-286) R244A (Rous sarcoma virus (Prague A)); assay: SEC
[2] = molecular target: Rous sarcoma virus integrase (1-286) R244E (Rous sarcoma virus (Prague A)); assay: SEC
[3] = molecular target: Rous sarcoma virus integrase (1-286) Y246A (Rous sarcoma virus (Prague A)); assay: SEC
[4] = molecular target: Rous sarcoma virus integrase, wt IN (1-278) (Rous sarcoma virus (Prague A)); assay: cryo-EM structure
[5] = molecular target: Rous sarcoma virus integrase, wt full-length IN (1-286) (Rous sarcoma virus (Prague A)); assay: SEC

Rous sarcoma virus integrase (1-286) R244A (enzyme)
stoichiometry N [1]: 2

Rous sarcoma virus integrase (1-286) R244E (enzyme)
stoichiometry N [2]: 2

Rous sarcoma virus integrase (1-286) Y246A (enzyme)
stoichiometry N [3]: 2

Rous sarcoma virus integrase, wt IN (1-278) (enzyme)
stoichiometry N [4]: 8

Rous sarcoma virus integrase, wt full-length IN (1-286) (enzyme)
stoichiometry N [5]: 2
